Reference: publication PMC8091058, “Distinct intramolecular interactions regulate autoinhibition of vinculin binding in αT-catenin and αE-catenin” (The Journal of Biological Chemistry, 2021)

Assays:
Test in all cases: ITC; vinculin D1 injected into αT-catenin or αE-catenin fragment (or αT-catenin head–β-catenin complex) in the cell; 25 °C; 20 mM Hepes pH 8.0, 150 mM NaCl, 1 mM TCEP
Settings in all cases: both partners purified
[1] = biological target: T1, αE-catenin M1-M3 (aa 273–651) (Mus musculus, UniProt P26231 273-651)
T1 construct: αE-catenin, Mus musculus, M1-M3, aa 273-651; in pGEX-TEV; also called αE-catenin M1-M3 (273–651); source: E. coli BL21-Gold, purified (glutathione-agarose, TEV cleavage, Mono Q or Mono S, S200)
T1 sequence (looked up): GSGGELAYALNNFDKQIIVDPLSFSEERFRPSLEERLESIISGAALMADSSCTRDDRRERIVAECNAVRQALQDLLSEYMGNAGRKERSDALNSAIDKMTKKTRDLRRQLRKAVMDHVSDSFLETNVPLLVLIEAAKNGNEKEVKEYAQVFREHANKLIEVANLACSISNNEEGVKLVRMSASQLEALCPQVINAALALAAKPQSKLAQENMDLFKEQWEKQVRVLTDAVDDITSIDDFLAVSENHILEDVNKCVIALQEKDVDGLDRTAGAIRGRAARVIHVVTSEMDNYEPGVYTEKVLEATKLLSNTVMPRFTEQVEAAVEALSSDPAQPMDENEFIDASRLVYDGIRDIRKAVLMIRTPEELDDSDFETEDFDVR

[2] = biological target: T2, αT-catenin M1-M3 (aa 260–626) (Mus musculus, UniProt Q65CL1 260-626)
T2 construct: αT-catenin, Mus musculus, M1-M3, aa 260-626; in pGEX-TEV; also called αT-catenin M-region; αT-catenin M1-M3 (260–626); source: E. coli BL21-Gold, purified (glutathione-agarose, TEV cleavage, Mono Q or Mono S, S200)
T2 sequence (looked up): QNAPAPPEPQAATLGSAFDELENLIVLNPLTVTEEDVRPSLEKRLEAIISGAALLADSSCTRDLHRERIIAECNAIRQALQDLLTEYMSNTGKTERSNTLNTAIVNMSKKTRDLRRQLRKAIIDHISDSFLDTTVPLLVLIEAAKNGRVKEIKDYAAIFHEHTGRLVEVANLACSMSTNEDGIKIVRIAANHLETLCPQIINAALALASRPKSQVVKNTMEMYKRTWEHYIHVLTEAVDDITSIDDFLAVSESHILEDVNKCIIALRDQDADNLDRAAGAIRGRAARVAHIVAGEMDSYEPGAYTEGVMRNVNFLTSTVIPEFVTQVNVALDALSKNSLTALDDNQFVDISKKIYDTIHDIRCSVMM

[3] = biological target: T3, αE-catenin M1-M2 (aa 273–510) (Mus musculus, UniProt P26231 273-510)
T3 construct: αE-catenin, Mus musculus, M1-M2, aa 273-510; in pGEX-TEV; also called αE-catenin M1-M2 (273–510); source: E. coli BL21-Gold, purified (glutathione-agarose, TEV cleavage, Mono Q or Mono S, S200)
T3 sequence (looked up): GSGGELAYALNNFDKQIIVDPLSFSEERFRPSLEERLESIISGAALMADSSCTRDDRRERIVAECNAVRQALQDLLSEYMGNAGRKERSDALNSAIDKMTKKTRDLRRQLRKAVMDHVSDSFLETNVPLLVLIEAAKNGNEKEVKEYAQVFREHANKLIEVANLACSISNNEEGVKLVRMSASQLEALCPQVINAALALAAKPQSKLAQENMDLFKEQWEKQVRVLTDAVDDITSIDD

[4] = biological target: T4, αT-catenin N2-M3 (aa 147–626) (Mus musculus, UniProt Q65CL1 147-626)
T4 construct: αT-catenin, Mus musculus, N2-M3, aa 147-626; in pGEX-TEV; also called αT-catenin N2-M3 (147–626); source: E. coli BL21-Gold, purified (glutathione-agarose, TEV cleavage, Mono Q or Mono S, S200)
T4 sequence (looked up): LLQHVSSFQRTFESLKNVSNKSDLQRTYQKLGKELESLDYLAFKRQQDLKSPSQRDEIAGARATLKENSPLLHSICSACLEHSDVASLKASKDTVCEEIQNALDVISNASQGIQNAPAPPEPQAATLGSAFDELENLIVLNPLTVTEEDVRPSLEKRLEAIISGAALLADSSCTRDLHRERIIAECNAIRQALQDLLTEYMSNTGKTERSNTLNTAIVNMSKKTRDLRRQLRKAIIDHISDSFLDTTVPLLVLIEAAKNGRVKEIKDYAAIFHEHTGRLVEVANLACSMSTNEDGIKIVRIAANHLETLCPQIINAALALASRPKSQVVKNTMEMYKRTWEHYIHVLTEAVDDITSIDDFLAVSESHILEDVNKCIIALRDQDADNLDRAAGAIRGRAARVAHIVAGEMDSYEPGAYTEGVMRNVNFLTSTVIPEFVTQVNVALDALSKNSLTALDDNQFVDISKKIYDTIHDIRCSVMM

Kd [1]: 10.4 ± 4.59 µM
dH [1]: 12.8 ± 5.2 kcal/mol
Kd [2]: 60.5 ± 19.2 nM
dH [2]: -2.2 ± 1 kcal/mol
dH [3]: 8.7 ± 0.2 kcal/mol
Kd [4]: 50.2 ± 40.4 nM
dH [4]: 4 ± 0.1 kcal/mol
B1: vinculin D1 (aa 1–259) (domain or fragment, UniProt P12003 1-259, looked up)
chain: MPVFHTRTIESILEPVAQQISHLVIMHEEGEVDGKAIPDLTAPVSAVQAAVSNLVRVGKETVQTTEDQILKRDMPPAFIKVENACTKLVRAAQMLQADPYSVPARDYLIDGSRGILSGTSDLLLTFDEAEVRKIIRVCKGILEYLTVAEVVETMEDLVTYTKNLGPGMTKMAKMIDERQQELTHQEHRVMLVNSMNTVKELLPVLISAMKIFVTTKNTKSQGIEEALKNRNFTVEKMSAEINEIIRVLQLTSWDEDAWA
notes: vinculin D1 fragment, aa 1-259, the first 2 four-helix bundles; in pGEX-TEV; also called vinculin aa 1 to 259 (D1); vinculin N-terminus; source: E. coli BL21-Gold, purified (glutathione-agarose, TEV cleavage, Mono Q or Mono S, S200)
